Patent publication US20230295335A1 (published 2023)

T1: full length mouse EpCAM on CHO-S cells (mouse, UniProt Q99JW5 24-315)
T1 sequence: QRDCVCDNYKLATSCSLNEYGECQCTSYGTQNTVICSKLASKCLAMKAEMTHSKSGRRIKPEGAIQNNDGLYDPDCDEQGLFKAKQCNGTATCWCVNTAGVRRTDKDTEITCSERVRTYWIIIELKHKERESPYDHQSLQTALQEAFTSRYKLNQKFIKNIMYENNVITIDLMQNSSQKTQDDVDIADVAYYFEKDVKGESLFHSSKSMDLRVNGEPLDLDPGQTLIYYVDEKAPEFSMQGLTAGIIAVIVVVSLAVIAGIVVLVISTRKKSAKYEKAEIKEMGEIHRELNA

T2: full length cynomolgus monkey EpCAM on CHO-S cells (cynomolgus monkey, UniProt Q1WER1 24-314 (rhesus entry))
T2 sequence: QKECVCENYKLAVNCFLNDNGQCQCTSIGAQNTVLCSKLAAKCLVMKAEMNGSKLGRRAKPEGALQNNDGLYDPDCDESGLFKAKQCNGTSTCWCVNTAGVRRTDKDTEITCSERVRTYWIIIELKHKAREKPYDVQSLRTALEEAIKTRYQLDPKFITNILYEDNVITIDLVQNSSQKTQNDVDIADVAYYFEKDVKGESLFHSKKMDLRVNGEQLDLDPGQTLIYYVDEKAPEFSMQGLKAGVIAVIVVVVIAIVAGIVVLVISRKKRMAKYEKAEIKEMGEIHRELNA

T3: recombinant human EpCAM (R&D systems, cat no 9277-EP) (human, UniProt P16422 24-265)
T3 construct: also called human EpCAM extracellular domain
T3 sequence: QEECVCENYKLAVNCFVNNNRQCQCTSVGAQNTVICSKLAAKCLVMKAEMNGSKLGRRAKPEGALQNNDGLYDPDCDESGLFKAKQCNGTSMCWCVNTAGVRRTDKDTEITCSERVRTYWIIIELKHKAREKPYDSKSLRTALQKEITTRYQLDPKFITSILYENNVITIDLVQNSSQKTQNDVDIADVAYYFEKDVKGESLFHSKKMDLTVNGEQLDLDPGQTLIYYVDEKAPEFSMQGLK


What was measured:
[1] = biological target: T1, full length mouse EpCAM on CHO-S cells; test: flow cytometry on CHO-S cells transfected with mouse EpCAM
Procedure: (§1) Binding of EpCAM antibodies to CHO-S cells transiently transfected with full length human, cynomolgus monkey or mouse EpCAM was analyzed by flow cytometry. […] Cells were washed twice in FACS buffer, re-suspended in 20 μL FACS buffer supplemented with TO-PRO™-3 Iodide (diluted 1:20000; Invitrogen, cat. no. T3605) and analyzed on an iQue screener (Intellicyt Corporation, USA). Binding curves were analyzed by non-linear regression (sigmoidal dose-response with variable slope) using GraphPad Prism V8.4.1 software (GraphPad Software, San Diego, CA, USA).

[2] = biological target: T2, full length cynomolgus monkey EpCAM on …; test: flow cytometry on CHO-S cells transfected with cynomolgus monkey EpCAM
Procedure: as §1

[3] = biological target: T3, recombinant human EpCAM (R&D systems, …); test: BLI classical sandwich cross-block; human EpCAM held by immobilized first antibody IgG1-EpCAM-A37-FEAR (competitor); second antibody 10 µg/mL in solution
Procedure: (§2) The theoretical molecular mass of human EpCAM based on the amino acid sequence (28 kDa) was used for calculations. The association (300 s) of a second EpCAM antibody (10 μg/mL in Sample Diluent) was determined. Data were acquired using Data Acquisition Software v12.0.1.8 (FortéBio) and analyzed with Data Analysis HT Software v12.0.1.55 (FortéBio). Data traces were corrected by subtraction of a reference curve (Sample Diluent instead of second antibody) in order to correct for the dissociation of human EpCAM from the immobilized first antibody. The Y-axis was aligned to the start of the association step and Savitzky-Golay filtering was applied. The corrected association responses of the second antibodies were plotted in a matrix format. […] By contrast, responses between −0.1 and 0.1 nm were considered to be blocking antibody pairs.

[4] = biological target: T3, recombinant human EpCAM (R&D systems, …); test: BLI classical sandwich cross-block; human EpCAM held by immobilized first antibody IgG1-EpCAM-C52-FEAR (competitor); second antibody 10 µg/mL in solution
Procedure: as §2

[5] = biological target: T3, recombinant human EpCAM (R&D systems, …); test: BLI classical sandwich cross-block; human EpCAM held by immobilized first antibody IgG1-EpCAM-323-A3-FEAR (competitor); second antibody 10 µg/mL in solution
Procedure: as §2

[6] = biological target: T3, recombinant human EpCAM (R&D systems, …); test: BLI classical sandwich cross-block; human EpCAM held by immobilized first antibody IgG1-EpCAM-UBS-54-FEAR (competitor); second antibody 10 µg/mL in solution
Procedure: as §2

[7] = biological target: human 4-1BB (CD137) on cells (human, UniProt Q07011 24-255); test: cell-based or functional assay
FcγRIa = biological target: T4, FcγRIa (human, UniProt P12314 16-288, limits assumed, biotinylated); test: SPR (Biacore 8K); His-tagged FcγR captured on anti-His chip
T4 construct: Bought His-tagged protein captured on anti-His chip; also called CD64 Protein, Human, Recombinant (His Tag), Biotinylated
Procedure: (§3) At the end of each cycle, the surface was regenerated using 10 mM Glycine-HCl pH 1.5 (Cytiva, cat. no. BR100354).

FcγRIIIa-F158 = biological target: T5, FcγRIIIa-F158 (human, UniProt P08637 17-208); test: as above
T5 construct: extracellular domain; Bought His-tagged protein
Procedure: as §3

FcγRIIIa-V158 = biological target: T6, FcγRIIIa-V158 (human, UniProt P08637 17-208); test: as above
T6 construct: Bought His-tagged protein
T6 sequence (P08637 17-208 F176V limits assumed): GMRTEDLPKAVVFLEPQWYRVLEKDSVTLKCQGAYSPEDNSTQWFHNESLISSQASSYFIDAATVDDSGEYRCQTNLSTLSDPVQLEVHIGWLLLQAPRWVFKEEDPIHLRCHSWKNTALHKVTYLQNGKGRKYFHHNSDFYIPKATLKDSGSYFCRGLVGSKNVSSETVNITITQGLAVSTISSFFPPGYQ
Procedure: as §3

Sequence of human 4-1BB (CD137) on cells (Q07011 24-255): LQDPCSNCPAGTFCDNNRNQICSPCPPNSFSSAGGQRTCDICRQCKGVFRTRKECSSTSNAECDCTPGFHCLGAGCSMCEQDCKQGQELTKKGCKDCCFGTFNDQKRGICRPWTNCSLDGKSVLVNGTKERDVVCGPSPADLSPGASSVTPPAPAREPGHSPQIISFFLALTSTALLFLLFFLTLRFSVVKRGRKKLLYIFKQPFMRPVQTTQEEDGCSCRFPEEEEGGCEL
T5 sequence (P08637 17-208): as the sequence (P08637 17-208 F176V limits assumed) above, with V160F counted along it
T4 sequence (P12314 16-288 limits assumed): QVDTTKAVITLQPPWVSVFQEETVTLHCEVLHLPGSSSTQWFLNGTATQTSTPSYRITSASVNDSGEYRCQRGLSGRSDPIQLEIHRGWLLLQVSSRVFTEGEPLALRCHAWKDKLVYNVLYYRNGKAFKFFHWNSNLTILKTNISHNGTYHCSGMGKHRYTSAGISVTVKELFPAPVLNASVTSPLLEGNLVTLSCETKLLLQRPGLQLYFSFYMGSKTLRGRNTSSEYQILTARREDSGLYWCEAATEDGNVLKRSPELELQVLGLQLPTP

| binding result [1] | binding result [2] | corrected association response of the antibody in solution [3] [nm] | corrected association response of the antibody in solution [4] [nm] | corrected association response of the antibody in solution [5] [nm] | corrected association response of the antibody in solution [6] [nm] | Binder | further results |
| --- | --- | --- | --- | --- | --- | --- | --- |
| binds | binds | -0.03 | -0.01 | 0 | -0.02 | IgG1-EpCAM-UBS-54-FEAR (antibody, V domains shown) VH: QVQLVQSGAEVKKPGSSVRVSCKASGGTFSSYAISWVRQAPGQGLEWMGGIIPIFGTANYAQKFQGRVTITADESTSTAYMELSSLRSEDTAVYYCARDPFLHYWGQGTLVTVSS VL: not shown |  |
|  |  | -0.02 | -0.02 | 0 | -0.01 | IgG1-EpCAM-323-A3-FEAR (antibody, also called IgG1-323-A3-FEAR) heavy: QIQLVQSGPELKKPGETVKISCKASGYTFTNYGMNWVRQASGEGLKWMGWINTYTGEPTYGEDFKGRFAFSLETSASTAYLQINNLKNEDTATYFCARFGNYVDYWGQGTTLTVSSASTKGPSVFPLAPSSKSTSGGTAALGCLVKDYFPEPVTVSWNSGALTSGVHTFPAVLQSSGLYSLSSVVTVPSSSLGTQTYICNVNHKPSNTKVDKRVEPKSCDKTHTCPPCPAPEFEGGPSVFLFPPKPKDTLMISRTPEVTCVVVAVSHEDPEVKFNWYVDGVEVHNAKTKPREEQYNSTYRVVSVLTVLHQDWLNGKEYKCKVSNKALPAPIEKTISKAKGQPREPQVYTLPPSREEMTKNQVSLTCLVKGFYPSDIAVEWESNGQPENNYKTTPPVLDSDGSFFLYSRLTVDKSRWQQGNVFSCSVMHEALHNHYTQKSLSLSPG light: DIVMTQAAFSNPVTLGTSASISCRSSKNLLHSNGITYLYWYLQKPGQSPHLLIYQMSNLASGVPDRFSSSGSGTDFTLRISRVEAEDVGVYYCAQNLEIPRTFGGGTKLEIKRTVAAPSVFIFPPSDEQLKSGTASVVCLLNNFYPREAKVQWKVDNALQSGNSQESVTEQDSKDSTYSLSSTLTLSKADYEKHKVYACEVTHQGLSSPVTKSFNRGEC |  |
| binds | binds |  |  |  |  | IgG1-EpCAM-323-A3 (antibody, Unmodified IgG1 constant region) heavy: not shown light: DIVMTQAAFSNPVTLGTSASISCRSSKNLLHSNGITYLYWYLQKPGQSPHLLIYQMSNLASGVPDRFSSSGSGTDFTLRISRVEAEDVGVYYCAQNLEIPRTFGGGTKLEIKRTVAAPSVFIFPPSDEQLKSGTASVVCLLNNFYPREAKVQWKVDNALQSGNSQESVTEQDSKDSTYSLSSTLTLSKADYEKHKVYACEVTHQGLSSPVTKSFNRGEC |  |
|  |  |  |  |  |  | bsIgG1-EpCAM-A37-FERL/CD137-009-HC7LC2-FEAR (bispecific antibody) heavy 1: not shown light 1: EIELTQSPGTLSLSPGERATLSCRASQTISNNYLAWYQQKRGQAPRLLIYAASSRATGIPDRFSGTGSGTDFTLTISRLEPEDFAVYYCAQGELYPRQFGGGTKLEIKRTVAAPSVFIFPPSDEQLKSGTASVVCLLNNFYPREAKVQWKVDNALQSGNSQESVTEQDSKDSTYSLSSTLTLSKADYEKHKVYACEVTHQGLSSPVTKSFNRGEC heavy 2: EVQLVESGGGLVQPGRSLRLSCTASGFSLNDYWMSWVRQAPGKGLEWVGYIDVGGSLYYAASVKGRFTISRDDSKSIAYLQMNSLKTEDTAVYYCARGGLTYGFDLWGQGTLVTVSSASTKGPSVFPLAPSSKSTSGGTAALGCLVKDYFPEPVTVSWNSGALTSGVHTFPAVLQSSGLYSLSSVVTVPSSSLGTQTYICNVNHKPSNTKVDKRVEPKSCDKTHTCPPCPAPEFEGGPSVFLFPPKPKDTLMISRTPEVTCVVVAVSHEDPEVKFNWYVDGVEVHNAKTKPREEQYNSTYRVVSVLTVLHQDWLNGKEYKCKVSNKALPAPIEKTISKAKGQPREPQVYTLPPSREEMTKNQVSLTCLVKGFYPSDIAVEWESNGQPENNYKTTPPVLDSDGSFFLYSRLTVDKSRWQQGNVFSCSVMHEALHNHYTQKSLSLSPG light 2: DIVMTQSPSSLSASVGDRVTITCQASEDISSYLAWYQQKPGKAPKRLIYGASDLASGVPSRFSASGSGTDYTFTISSLQPEDIATYYCHYYATISGLGVAFGGGTKVEIKRTVAAPSVFIFPPSDEQLKSGTASVVCLLNNFYPREAKVQWKVDNALQSGNSQESVTEQDSKDSTYSLSSTLTLSKADYEKHKVYACEVTHQGLSSPVTKSFNRGEC | EC50 CD107a GMFI (donor 1) [7]: 0.0503 µg/mL; EC50 CD107a GMFI (donor 2) [7]: 0.03 µg/mL; EC50 CD107a GMFI (donor 3) [7]: 0.0217 µg/mL; EC50 CD107a GMFI (donor 4) [7]: 0.012 µg/mL; EC50 CD107a GMFI (donor 6) [7]: 0.021 µg/mL; EC50 GzmB GMFI (donor 1) [7]: 0.0179 µg/mL; EC50 GzmB GMFI (donor 2) [7]: 0.0176 µg/mL; EC50 GzmB GMFI (donor 3) [7]: 0.0204 µg/mL; EC50 GzmB GMFI (donor 4) [7]: 0.0121 µg/mL; EC50 GzmB GMFI (donor 5) [7]: 0.0201 µg/mL; EC50 GzmB GMFI (donor 6) [7]: 0.0224 µg/mL; binding result (FcγRIa): no binding (tested: 3,000 nM (highest concentration tested)); binding result (FcγRIIIa-F158): no binding (tested: 10,000 nM (highest concentration tested)); binding result (FcγRIIIa-V158): no binding (tested: 10,000 nM (highest concentration tested)) |
| binds | binds | -0.04 | 0 | -0.01 | 0 | IgG1-EpCAM-A37-FEAR (antibody) heavy: not shown light: EIELTQSPGTLSLSPGERATLSCRASQTISNNYLAWYQQKRGQAPRLLIYAASSRATGIPDRFSGTGSGTDFTLTISRLEPEDFAVYYCAQGELYPRQFGGGTKLEIKRTVAAPSVFIFPPSDEQLKSGTASVVCLLNNFYPREAKVQWKVDNALQSGNSQESVTEQDSKDSTYSLSSTLTLSKADYEKHKVYACEVTHQGLSSPVTKSFNRGEC |  |
|  |  |  |  |  |  | bsIgG1-CD137-009-HC7LC2-FEAL/EpCAM-A37-FEAR (bispecific antibody) heavy 1: EVQLVESGGGLVQPGRSLRLSCTASGFSLNDYWMSWVRQAPGKGLEWVGYIDVGGSLYYAASVKGRFTISRDDSKSIAYLQMNSLKTEDTAVYYCARGGLTYGFDLWGQGTLVTVSSASTKGPSVFPLAPSSKSTSGGTAALGCLVKDYFPEPVTVSWNSGALTSGVHTFPAVLQSSGLYSLSSVVTVPSSSLGTQTYICNVNHKPSNTKVDKRVEPKSCDKTHTCPPCPAPEFEGGPSVFLFPPKPKDTLMISRTPEVTCVVVAVSHEDPEVKFNWYVDGVEVHNAKTKPREEQYNSTYRVVSVLTVLHQDWLNGKEYKCKVSNKALPAPIEKTISKAKGQPREPQVYTLPPSREEMTKNQVSLTCLVKGFYPSDIAVEWESNGQPENNYKTTPPVLDSDGSFLLYSKLTVDKSRWQQGNVFSCSVMHEALHNHYTQKSLSLSPG light 1: DIVMTQSPSSLSASVGDRVTITCQASEDISSYLAWYQQKPGKAPKRLIYGASDLASGVPSRFSASGSGTDYTFTISSLQPEDIATYYCHYYATISGLGVAFGGGTKVEIKRTVAAPSVFIFPPSDEQLKSGTASVVCLLNNFYPREAKVQWKVDNALQSGNSQESVTEQDSKDSTYSLSSTLTLSKADYEKHKVYACEVTHQGLSSPVTKSFNRGEC heavy 2: not shown light 2: EIELTQSPGTLSLSPGERATLSCRASQTISNNYLAWYQQKRGQAPRLLIYAASSRATGIPDRFSGTGSGTDFTLTISRLEPEDFAVYYCAQGELYPRQFGGGTKLEIKRTVAAPSVFIFPPSDEQLKSGTASVVCLLNNFYPREAKVQWKVDNALQSGNSQESVTEQDSKDSTYSLSSTLTLSKADYEKHKVYACEVTHQGLSSPVTKSFNRGEC | binding result (FcγRIa): no binding (tested: 3,000 nM (highest concentration tested)); binding result (FcγRIIIa-F158): no binding (tested: 10,000 nM (highest concentration tested)); binding result (FcγRIIIa-V158): no binding (tested: 10,000 nM (highest concentration tested)) |
| binds | binds | -0.03 | -0.02 | -0.01 | 0 | IgG1-EpCAM-C52-FEAR (antibody, V domains shown, The running text prints C52 as 052; also called IgG1-EpCAM-052-FEAR) VH: QVQLVQSGAEVKKPGASVKVSCKASGGTFSSYAISWVRQAPGQGLEWMGGIVPIFGTANYAQKFQGRVTITADESTSTAYMELSSLRSEDTAVYYCARDPFLHYWGQGTLVTVSS VL: EIELTQSPGTLSLSPGERATLSCRASQSVSSSYLAWYQQKPGQAPRLLIYGASSRATGIPDRFSGSGSGTDFTLTISRLEPEDFAVYYCAQGELYPRQFGGGTKLDIKR |  |
